Experiments:
[1] = biological target: Fc-receptors; experiment: cell-based or functional assay
[2] = biological target: kappa myeloma antigen (KMA) (human); experiment: cell-based or functional assay

KM.CAR-hCH2CH3-28z (receptor) was tested. Which enrichment of CAR expressing T-cells in culture with PBMC alone (% of CD3+ T-cells) [1] did it give?
The enrichment of CAR expressing T-cells in culture with PBMC alone (% of CD3+ T-cells) was 28.

For “KM.CAR_h_28TM_41BBz (from UniProt P10747 153-179; Q07011 214-255) (receptor)”, which CAR expression (GFP) in culture with JJN3 [2] is on record?
The CAR expression (GFP) in culture with JJN3 was 17%.

What about the expansion of CAR T-cell culture with JJN3 [2] of the same substance?
Its expansion of CAR T-cell culture with JJN3 is 5 fold.

Which CAR expression (GFP) in culture in the presence of JJN3 [2] does the source give for “KM.CAR_8a_28TM_41BBz (from UniProt P01732 138-182; P10747 153-179; Q07011 214-255) (receptor)” here?
Its CAR expression (GFP) in culture in the presence of JJN3 is 5%.

And the expansion of CAR T-cell culture in the presence of JJN3 [2]?
The expansion of CAR T-cell culture in the presence of JJN3 was 8 fold.
